For 167 variants, self-cleavage results are on record in the RNAGym collection of RNA variant scans (doi:10.7554/elife.90254).

B1: OR4K15 (parent)
chain: GUUAACGGUCAUAGGCCAUGGAAACUAGGAGCACCAUUUCGCUGCCAGUGAAGAAAUGAACAAAGAAAAUCUGGGCCAGGCAGGCAUCAAAAGAAAUAGUCUUGCGCUCAACCAGAAAGUCUGUAAUCAUUUUAAGGGUA

The variants in this data set derive from B1. The data set is described as follows: self-cleavage, relative activity (ratio to wild type); higher = more cleavage; in vitro, sequencing; the parent is a self-cleaving ribozyme.
Consider G14U A24G, for which the self-cleavage was 1.23.
Take A13G U139C: the self-cleavage came to 1.13.
As for A13G U139A, the figure is 1.51.
In the case of A13G A92G, the self-cleavage was found to be 1.22.
The figure for A13G A90U is 0.25; for G15C A68C it is 2.44.
As for G14A A59G, the figure is 1.27.
For A13G C34G, the self-cleavage came out at 0.83.
The figure for U12A A36G is 1.05.
The figure for U12A A36C is 1.82; for A13G A89C it is 0; for A13G A89G it is 1.31.
On to U12C U122C, for which the self-cleavage stood at 1.05.
As for G15C A91U, the figure is 0.88; as for U12A A54U, 1.28; as for U12C A60G, 1.34.
With A11U C61A, the self-cleavage worked out at 1.92.
The figure for A13G U39G is 1.52.
As for A13G U39C, the figure is 0.92; as for U12C U70C, 1.25; as for G14A A55G, 1.58.
The figure for A13G U124C is 0.57.
Turning to G14U C105U, the self-cleavage turned out to be 0.07.
As for A13G C40U, the figure is 1.03; as for G14A A22G, 0.51.
Turning to A11U U49C, the self-cleavage amounted to 1.38.
The figure for A13U A60G is 0.32.
Consider A13G U133C, for which the self-cleavage is 1.84.
The figure for G15C U43C is 1.93; for U12C U103C it is 1.41; for A13G G137U it is 1.06.
As for A13C A116G, the figure is 0.96; as for U12A A111G, 0.08; as for A11U U124C, 1.14.
As for A13C U127C, the figure is 0.65; as for G14A A114U, 0.01.
In the case of U12A U38G, the self-cleavage was 1.9.
As for A11U A116C, the figure is 0.23; as for A11U A116G, 1; as for G15U A126U, 0.79.
As for U12C, the figure is 1.01; as for U12A, 1.19.
As for U12G, the figure is 1.33; as for G14C A30G, 1.66.
For G15C A24G, the self-cleavage turned out to be 0.88.
The figure for A11U A111G is 0.06.
For A11U A111U, the self-cleavage stood at 0.06.
The figure for A13G A51G is 0.85.
The figure for G14A A47G is 0.81.
The figure for G15A A56G is 1.45; for A13U A62U it is 1.05; for U12A U70A it is 0.56.
As for A13U U57C, the self-cleavage came to 0.64.
As for A11U U100A, the figure is 0.62; as for U12C A69G, 1.68; as for G15A A116G, 0.52.
As for U12C A78U, the figure is 0.34; as for U12C A59G, 0.86.
As for U12A A63U, the figure is 1.88.
Turning to G14U A63G, the self-cleavage came to 1.14.
As for G14A A54U, the figure is 1.55; as for U12C U72C, 0.18; as for A13G G15U, 1.33.
As for A13U A47G, the figure is 0.93; as for C16A A18G, 1.18; as for A11U A91G, 0.78.
The figure for A13U A91U is 1.34; for U12C A22U it is 0.66; for A13G U102C it is 1.18.
As to G14U A22G, the self-cleavage is 1.12.
The figure for A13C G79U is 0.17; for G14A A129U it is 0.41.
As for G15C A111U, the figure is 0.11; as for U12C U139C, 1.41.
As for G15A A54G, the figure is 1.41; as for A13G C105A, 0.15; as for G15C U49C, 1.78.
With G14A U130C, the self-cleavage was found to be 0.45.
As for U12A A52G, the figure is 1.14.
As for U12C U49G, the figure is 0.74.
The figure for U12C U49C is 0.44; for G15A U131C it is 0.87; for A13U A98U it is 2.18.
Consider G14C U103C, for which the self-cleavage was 1.13.
As for U12G A82U, the figure is 0.3; as for A11U A96G, 1.31.
The figure for A13U A90U is 1.8.
As to A13G A24G, the self-cleavage was determined as 1.05.
As for U12A U122C, the figure is 1.26.
As for A13G A60G, the figure is 1.33; as for G15A A114G, 0.06.
As for G15U A78G, the figure is 0.14; as for U12C A18C, 0.58.
G14U A96U: the self-cleavage worked out at 1.13.
As for G14A U127C, the figure is 0.28.
On to U12A A30U, for which the self-cleavage came to 1.11.
The figure for G15C U39C is 1.26; for A13C A95G it is 1.32.
Take G14U A118U: the self-cleavage turned out to be 0.4.
As for U12C C45U, the figure is 1.85; as for A13U U130C, 0.69; as for A13G A68G, 0.65.
The figure for A11U A92G is 1.
As to G14A A89G, the self-cleavage amounted to 0.65.
As for A13U A55G, the figure is 0.85.
As for A11U U57C, the figure is 0.73; as for U12C G99A, 0.97.
As for U12A A89G, the figure is 1.57.
On to A13U A66U, for which the self-cleavage turned out to be 1.15.
In the case of U12C U38A, the self-cleavage worked out at 0.89.
The figure for G14A A92G is 0.96; for A13G A114G it is 0.31; for U12C U37G it is 1.92.
Take A13G U132C: the self-cleavage stood at 0.41.
As for G15A U70A, the figure is 0.96.
Take A13U A56G: the self-cleavage worked out at 1.44.
As for U12C A36G, the figure is 1.44.
The figure for A11U G58A is 0.75; for A13G A63G it is 0.97.
As for A13G A63U, the figure is 0.77.
On to U12C A90U, for which the self-cleavage was determined as 0.94.
The figure for G14U A66G is 0.9.
As for G14A A117G, the figure is 1.22; as for G14C A59G, 1.46.
The figure for U12C A117G is 1.33.
Regarding U12C C105U, the self-cleavage stood at 0.23.
For the variant G14U U37C, the self-cleavage stood at 1.24.
On to A13U A89G, for which the self-cleavage amounted to 1.51.
With U12C C42U, the self-cleavage is 1.16.
As for U12C U97C, the figure is 0.65; as for A13G A96U, 1.14.
As for A11U A118U, the figure is 0.51; as for A11U A118G, 0.59.
As for U12G A60G, the figure is 1.59.
A13C A23G: the self-cleavage was 1.36.
Take G14A U72C: the self-cleavage was 0.22.
As for A13G A62G, the figure is 1.25; as for G14A U43C, 0.99.
As for U12A A56G, the figure is 1.58; as for U12A A110C, 0.34.
As for U12A A110U, the figure is 1.63; as for U12G A22G, 1.13; as for U12C A23G, 0.76.
In the case of U12C A52G, the self-cleavage came to 0.83.
The figure for G15U A68C is 1.71; for A13G U38A it is 0.78; for G14A A56G it is 1.1.
The figure for A13U A96G is 1.14.
On to A13U U122A, for which the self-cleavage came out at 1.5.
As for A13U U122C, the figure is 0.56; as for G15A U102C, 1.98.
The figure for A13U U72C is 0.49.
The figure for A13U U124C is 1.37; for A13U A52U it is 1.26.
A13U A52G: the self-cleavage is 1.18.
The figure for G14A G106A is 0.02.
As for G15A U139C, the self-cleavage was determined as 1.3.
On to U12C U102C, for which the self-cleavage was determined as 1.22.
As for U12C U130C, the figure is 0.95; as for A13G A47G, 0.13.
With A11U U108G, the self-cleavage is 0.08.
As for U12C A55G, the figure is 1.34; as for U12C A51U, 1.38; as for G14U A135C, 1.41.
The figure for U12C G84C is 0.31.
As for G15A C113U, the figure is 0.03.
For G14C A82G, the self-cleavage is 0.32.
